Marks after values point to notes of the source that are not given here.
How the values were obtained:
Assay in all cases: Steady-state kinetics, DNA- and RNA-dependent polymerase activity
[1] = substrate: Cc1cn([C@H]2C[C@H](O)[C@@H](COP(=O)(O)OP(=O)(O)OP(=O)(O)O)O2)c(=O)[nH]c1=O; format: biochemical, Dictyoglomus thermophilum strain Rt46B.1; conditions: 72 °C
Description: (§1) Purification of CA2, B.EA1, Rt41A, Dth, Tok13B, Tok7B, and Rt69B DNA polymerase. E. coli cells (BL21SI, Invitrogen Corporation, Carlsbad, Calif.) bearing the plasmid pET26B with the gene for CA2, B.EA1, Rt41A, or Dth DNA polymerase were grown in 2.8-1 Fembach flasks in LB broth containing no salt and 50 μg/ml kanamycin at 37° C. After the culture reached an A590 of 1.2, expression of DNA polymerase was induced with 0.3 M NaCl for 3 hr. Cells were harvested by centrifugation and stored at −70° C. E. coli cells (BL21AI) bearing the plasmid pET14B with the gene for Tok13B, Tok7B, or RT69B DNA polymerase were grown in 2.8-1 Fembach flasks in LB broth containing 50 μg/ml ampicillin at 37° C. After the culture reached an A590 of 1.0, expression of DNA polymerase was induced by the addition of 0.2% arabinose for 3 hr. Cells were harvested by centrifugation and stored at −70° C.
(§2) Steady-state kinetic measurements.

[2] = substrate: Cc1cn([C@H]2C[C@H](O)[C@@H](COP(=O)(O)OP(=O)(O)OP(=O)(O)O)O2)c(=O)[nH]c1=O; format: biochemical, Caldibacillus cellulovorans CompA.2; conditions: 55 °C, mean ± SD
Description: as §1, §2
(§3) The catalytic rate constant kcat and the Michaelis constant KM were determined for both the DNA-dependent and RNA-dependent polymerase activities for the polypeptides of the invention and these parameters were compared to those of Tne DNA polymerase enzyme and […]™ II reverse transcriptase. […]

[3] = substrate: Nc1nc2c(ncn2[C@H]2C[C@H](O)[C@@H](COP(=O)(O)OP(=O)(O)OP(=O)(O)O)O2)c(=O)[nH]1; format: biochemical, Caldibacillus cellulovorans CompA.2; conditions: other: Table 34, DNA template, 1.5 mM MgCl2, 55 °C per footnote *
Description: as §1, §2, §3

[4] = substrate: Cc1cn([C@H]2C[C@H](O)[C@@H](COP(=O)(O)OP(=O)(O)OP(=O)(O)O)O2)c(=O)[nH]c1=O; format: biochemical, Bacillus caldolyticus EA1.3; conditions: 55 °C, mean ± SD
Description: as §1, §2

[5] = other: Table 40, (dA)270•(dT)40, dTTP
[6] = other: Table 40, (rA)250•(dT)30, dTTP

B1: Dictyoglomus thermophilum strain Rt46B.1 (Dth) DNA polymerase, SEQ ID NO:22 (Dictyoglomus thermophilum) (protein)
chain: MKYLLPTAAAGLLLLAAQPAMAMDIGINSDPKSLWDLFQENTEKESKRKILIIDGSSLIYRVYYALPPLKTKNGELTNALYGFIRILLKAVEDFNPDLVGVAFDRPEPTFRHVIYKEYKAKRPPMKDDLKAQIPWIREFLRLNDIPLLEEPGYEADDIIATIVNKYKDDLKYILSGDLDLLQLVSDKTFLIHPQKGITEFTIYDPKAVKDRFGVEPYKIPLYKVLVGDESDNIPGVNGIGPKKASKILEKISSVDEFKSKIKVLDSDLRELIEKNWNIIERNLELVTLKNIDKDLILKPFEIKRDEKVIDFLKRYELKSILQKLFPDLQEEENIEIKDVEEINFNEVEKEGYFAFKCLGDRAFEGISLSFKEGEGYFISPFDFNNEIRKKIENIISSENVKKIGSYIQRDLHFLNCKIKGDVFDVSLASYLLNPERQNHSLDILIGEYLNKTSFIPQKYAGYLFPLKSILEERIKNEGLEFVLYNIEIPLIPVLYSMEKWGIKVDKEYLKQLSDEFCERIKKLEEEIYELAGTRFNLNSPKQLSEVLFERLKLPSGKKGKTGYSTSSSVLQNLINAHPIVRKILQYRELYKLKSTYVDAIPNLVNPQTGRVHTKFNPTGTATGRISSSEPNLQNIPIKSEEGRKIRRAFVSEDGYFLVSLDYSQIELRIMAHLSQEPKLISAFQKGEDIHRRTASEIFGVPEEEVDDLLRSRAKAVNFGIIYGISSFGLSETVSITPEEAEKFIDSYFKHYPRVKLFIDKTIHEAREKLYVKTLFGRKRYIPEIKSINKQVRNAYERIAINAPIQGTAADIIKLAMIEIYKEIENKNLKSRILLQIHDELILEVPEEEMEFTPLMAKEKMEKVVELSVPLVVEISVGKNLAELK
With B1 the kcat ([1]; other: Table 40, (dA)270•(dT)40, dTTP, mean ± SD) was 39 ± 15 s⁻¹ and the kcat ([1]; other: Table 40, (rA)250•(dT)40, dTTP) was < 1 s⁻¹.

B2: Caldibacillus cellulovorans CompA.2 (CA2) DNA polymerase, SEQ ID NO:16 ([Caldibacillus] cellulovorans) (protein)
chain: MKYLLPTAAAGLLLLAAQPAMAMGKLILVDGNSVANRAFYAVRLLSTRGGLHTNAVYGFANMLLKLIEEERPTHFLVAFDAGKATFRHREYEAYKAGRLQTPPELSEQFPYIRELVRAFGVASGELEEYEADDMIGTLAKRAEAEGVDTLVVTGDRDLLQLVSDRVTVALTRKGITETERYDPARIREEYGFDPDRIRDLKGLMGDASDNLPGVPGVGEKTALKLLRQYGSLESVLEHASEIAGKLGENLRAHADAARLSKRLATIDCAVPLQSGWDWLRLGEPDRAALASLLRQLEFKSLLKRLGLDGTSADADVDGVRSSARPADEKRPRAVAVAEEGVDVRCPDRPEEVEEALSRLEAAQSVVVEVTGDNPHDGEVRGVAWWDGHTAYFIPFERLVQSDMRPLADWLADARRPKRTHDSHRAEVALFWHGLAFRGTSFCTHIAAYLLDPTESRHTLADLSRRYGLPPVPEAEDVYGKGAKFKVPDRDTLARYVGRKAALVARLVPLLEADLAACGMRSLFYDLELPLSSELAVMETVGVRVDAAALAAYGEELREAAAKVEREIYELAGTTFNIGSTKQLGEILFDKLGLPVVKKTKTGYSTDADVLEELAPYHPIVEKILHYRQLTKLQSTYIEGLLKEIRPQTGKIHTYYQQTIAATGRLSSQFPNLQNIPIRLEEGRKIRKAFVPSEPGWLMLAADYSQIELRVLAHVSGDERLKEAFRTGMDIHTKTAMDVFGVSEDRVDARMRRQAKAVNFGIIYGISDFGLAQNLNISRKEAAEFIRQYFAVFSGVKAYRERIVEQARRDGYVTTLLGRRRYLPDINASNYNLRSFAERTAMNTPIQGTAADIIKTAMVRLTRRMRDVGLKSRMLLQVHDELVFEVPPDELDAMRELVTDVMESAVPLDVPLKVDVSWGADWYAAK
For B2, the kcat [2, 5] was 82 ± 9 s⁻¹, the kcat [2, 6] was 48 ± 9 s⁻¹ and the kcat [3] was 200* s−1.

B3: Bacillus caldolyticus EA1.3 (B.EA1) DNA polymerase, SEQ ID NO:20 ([Bacillus] caldolyticus) (protein)
chain: MKYLLPTAAAGLLLLAAQPAMAMGLKKKLVLIDGSSVAYRAFFALPLLHNDKGIHTNAVYGFTMMLNKILAEEEPTHMLVAFDAGKTTFRHEAFQEYKGGRQQTPPELSEQFPLLRELLRAYRIPAYELENYEADDIIGTLAARAEQEGFEVKVISGDRDLTQLASPHVTVDITKKGITDIEPYTPEAVREKYGLTPEQIVDLKGLMGDKSDNIPGVPGIGEKTAVKLLKQFGTVENVLASIDEIKGEKLKETLRQHREMALLSKKLAAIRRDAPVELSLDDIVYQGEDREKVVALFKELGFQSFLEKMESPSSEEEKPLAKMAFTLADRVTEEMLADKAALVVEVVEENYHDAPIVGIAVVNEHGRFFLRPETALADPQFVAWLGDETKKKSMFDSKRAAVALKWKGIELCGVSFDLLLAAYLLDPAQGVDDVAAAAKMKQYEAVRSDEAVYGKGAKRAVPDEPVLAEHLVRKAAAIWALERPFLDELRRNEQDRLLVELEQPLSSILAEMEFAGVKVDTKRLEQMGEELAEQLRTVEQRIYELAGQEFNINSPKQLGVILFEKLQLPVLKKTKTGYSTSADVLEKLAPYHEIVENILHYRQLGKLQSTYIEGLLKVVRPDTKKVHTIFNQALTQTGRLSSTEPNLQNIPIRLEEGRKIRQAFVPSESDWLIFAADYSQIELRVLAHIAEDDNLMEAFRRDLDIHTKTAMDIFQVSEDEVTPNMRRQAKAVNFGIVYGISDYGLAQNLNISRKEAAEFIERYFESFPGVKRYMENIVQEAKQKGYVTTLLHRRRYLPDITSRNFNVRSFAERMAMNTPIQGSAADIIKKAMIDLNARLKEERLQARLLLQVHDELILEAPKEEMERLCRLVPEVMEQAVTLRVPLKVDYHYGSTWYDAK
Protein B3 has a kcat [4, 5] of 73 ± 16 s⁻¹ and a kcat [4, 6] of 43 ± 7 s⁻¹.
